Tests used:
[1] = target: GFP-LacI-dCENP-C [Drosophila melanogaster]; assay: LacO-tethering recruitment assay (HA immunofluorescence intensity at LacO); details: parent: 1.2; read off a plot
[2] = target: CAL1-GFP-LacI [Drosophila melanogaster]; assay: as above; details: parent: 0.18; read off a plot

response (normalized to GFP) [1] | response (normalized to GFP) [2] | Substance
0.15 | – | HA-dCENP-C mutant L1357E; L1406E [Drosophila melanogaster] / GFP-LacI-dCENP-C [Drosophila melanogaster] chain 1 L1357E, chain 1 L1406E
– | 0.07 | HA-dCENP-C mutant L1357E; L1406E [Drosophila melanogaster] / CAL1-GFP-LacI [Drosophila melanogaster] chain 1 L1357E, chain 1 L1406E
